Measured values from patent US20140024594A1.

Target: GFP-MG53 (mouse) (UniProt Q1XH17)
Assay: cell-based or functional assay

Sequence of UniProt Q1XH17 (Q1XH17 whole entry): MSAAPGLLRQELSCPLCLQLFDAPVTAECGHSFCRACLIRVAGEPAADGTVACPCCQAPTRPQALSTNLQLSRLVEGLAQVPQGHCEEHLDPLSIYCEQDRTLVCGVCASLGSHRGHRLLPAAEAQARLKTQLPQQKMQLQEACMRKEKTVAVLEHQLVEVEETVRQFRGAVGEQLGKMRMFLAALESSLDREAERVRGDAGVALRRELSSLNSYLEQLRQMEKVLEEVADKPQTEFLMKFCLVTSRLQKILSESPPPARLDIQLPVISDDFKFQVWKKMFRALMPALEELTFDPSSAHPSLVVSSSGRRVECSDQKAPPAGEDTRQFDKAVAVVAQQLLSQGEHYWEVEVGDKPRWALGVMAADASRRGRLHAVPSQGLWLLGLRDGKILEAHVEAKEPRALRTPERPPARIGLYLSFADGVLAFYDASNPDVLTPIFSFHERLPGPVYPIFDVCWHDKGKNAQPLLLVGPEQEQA

caveolin-3 overexpressed from pcDNA-Cav-3
reduction in the appearance of filapodia-like structures: 82%
